Our source for the percent of parent values is publication PMC3581488.

What all share (assay): GST fusion protein pulldown assay, quantified immunoblot (α-tubulin)
In general terms: Immunoblotting shows a protein as a band on a membrane.

One experiment deals with Purified bovine tubulin (UniProt Q6B856). The note with it: parent: est. 100, read off a plot.
Experiment [1] concerns the target T1, Purified bovine tubulin, Q6B856.
T1 chain: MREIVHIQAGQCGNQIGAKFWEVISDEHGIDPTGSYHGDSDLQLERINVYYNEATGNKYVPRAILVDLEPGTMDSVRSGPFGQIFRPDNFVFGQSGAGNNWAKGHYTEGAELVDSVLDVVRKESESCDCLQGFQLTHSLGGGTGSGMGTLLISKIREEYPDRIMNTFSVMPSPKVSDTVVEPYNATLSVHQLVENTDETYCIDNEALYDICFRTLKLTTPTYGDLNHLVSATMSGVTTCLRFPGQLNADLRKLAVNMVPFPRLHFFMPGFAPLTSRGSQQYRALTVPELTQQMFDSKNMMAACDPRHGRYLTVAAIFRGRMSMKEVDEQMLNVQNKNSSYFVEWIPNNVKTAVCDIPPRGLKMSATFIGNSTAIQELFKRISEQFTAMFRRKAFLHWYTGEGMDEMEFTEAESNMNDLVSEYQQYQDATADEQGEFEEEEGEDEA
The note with it: chain shown with the change.

Experiment [2] has as its target Tubulin from rat brain extracts, P68370;Q3KRE8. The note with it: chain shown with the change; rat brain cytosolic extracts; parent: est. 100; read off a plot.
[3] abbreviates: parent: est. 100, read off a plot.

On to “GST fusion protein encoding the C-terminus (CT) of the angiotensin II type 1 receptor (AT1R) K311E”, for which the percent of parent with Purified bovine tubulin is 52 % of AT1R CT. “GST fusion protein encoding the C-terminus (CT) of the angiotensin II type 1 receptor (AT1R) K310E”: the percent of parent with Purified bovine tubulin was 20 % of AT1R CT.

B1: GST fusion protein encoding the C-terminus (CT) of the angiotensin II type 1 receptor (AT1R) K307E (protein)
chain: LGEKFKKYFLQLLKYIPPKAKSHSSLSTKMSTLSYRPSDNMSSSAKKPASCFEVE
In the case of B1, in experiment [1] (setting [3]), the percent of parent is 83 % of AT1R CT.

B2: GST fusion protein encoding the C-terminus (CT) of the angiotensin II type 1 receptor (AT1R) K307E; K308E; K310E; K311E (protein)
chain: LGEEFEEYFLQLLKYIPPKAKSHSSLSTKMSTLSYRPSDNMSSSAKKPASCFEVE
With B2, the percent of parent was 5 % of AT1R CT in experiment [1] (setting [3]); 4 % of AT1R CT in experiment [1] (purified tubulin, parent: est. 100, read off a plot); 12 % of AT1R CT in experiment [2].

B3: GST fusion protein encoding the C-terminus (CT) of the angiotensin II type 1 receptor (AT1R) K308E (protein)
chain: LGKEFKKYFLQLLKYIPPKAKSHSSLSTKMSTLSYRPSDNMSSSAKKPASCFEVE
In the case of B3, the percent of parent in experiment [1] (setting [3]) is 100 % of AT1R CT.
